For assay [1], the target named is CD18-independent counterreceptor for ICAM-R on Jurkat cells. In words: inhibition of Jurkat cell adhesion to coated soluble ICAM-R, peptide 1-2 mg/ml.
The target in assay [2] is T1, soluble human ICAM-R (human), P32942.
T1 chain: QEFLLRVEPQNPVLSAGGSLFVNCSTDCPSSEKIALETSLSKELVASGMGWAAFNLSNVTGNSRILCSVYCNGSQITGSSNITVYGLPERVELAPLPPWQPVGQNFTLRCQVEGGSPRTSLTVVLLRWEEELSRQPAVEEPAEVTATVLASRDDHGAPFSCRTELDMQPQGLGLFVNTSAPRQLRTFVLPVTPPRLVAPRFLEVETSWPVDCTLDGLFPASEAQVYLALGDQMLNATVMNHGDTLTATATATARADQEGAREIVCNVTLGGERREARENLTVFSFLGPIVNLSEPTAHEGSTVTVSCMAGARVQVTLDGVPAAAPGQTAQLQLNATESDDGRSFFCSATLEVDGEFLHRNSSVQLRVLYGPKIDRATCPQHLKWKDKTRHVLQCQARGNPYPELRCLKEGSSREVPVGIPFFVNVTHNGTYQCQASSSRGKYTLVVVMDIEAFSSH
Description: blocking of biotinylated murine ICR-8.1 binding to ICAM-R; competitor murine ICR-8.1.

Assay [3] has the same target. In words: ELISA on coated baculovirus soluble ICAM-R. For orientation: In an ELISA, binding on a coated surface is turned into a signal by an enzyme label.

The values below come from patent publication US20030199423A1.

DGQST [ICAM-1 peptide (DGQST), residues 70-74]: the % Inhibition (usually how much of the control response was suppressed) in assay [1] came to 9%.
NGSQI [ICAM-R domain 1 peptide (NGSQI), residues 72-76] gave a % Inhibition in assay [1] of 17%.
Turning to GERREA [ICAM-R peptide, residues 271-276], the % Inhibition in assay [1] worked out at 11%.
Consider EKIALET [ICAM-R peptide, residues 32-38], for which the % Inhibition in assay [1] is 10%.

B1: recombinant ICR-8.1 antibody miHuVHI/MuVK (antibody)
chain 1: QIQLVQSGAEVKKPGASVKVSCKASGYTFTDCIILWVRQAPGQGLEWMGKINPYFGTTTYAQKFQGRVTITADTSTSTAYMELSSLRSEDTAVYYCARKEAYPDAMDYWGQGTLVTVSS
chain 2: DAVMTQTPLSLPVSLGDQASISCRSSQSLVHSNGDTYLHWYLQKPGQSPQLLIYKVSNRFSGVPDRFSGSGSGTDFTLKLSRVEAEDLGVYFCSQSTHVPYTFGGGTKLEIK
modifications: not checked
In the case of B1, the fold less well competing than murine ICR-8.1 in assay [2] stood at 2 fold. For the same molecule, the fold improvement in binding over the other recombinant ICR-8.1 antibodies in assay [3] was 2 fold.
For GDQML [ICAM-R domain 3 peptide (GDQML), residues 230-234], the % Inhibition in assay [1] is 36%.
For the molecule GDQRL [ICAM-1 peptide (GDQRL), residues 228-232], the % Inhibition in assay [1] stood at 22%.
